# Experimental data: the DeepSol protein solubility set
# Experiment: soluble on expression in E. coli; label from the status in PepcDB or PDB records
row,Sequence,soluble on expression in E. coli
1,LHPEPQSQHELGNVFLKFKDKFCVYEEYCSNHEKALRLLVELNKIPTVRAFLLSCMLLGGRKTTDIPLEGYLLSPIQRICKYPLLLKELAKRTPGKHPDHPAVQSALQAMKTVCSNINETKRQMEKLEALEQLQSHIEGWEGSNLTDICTQLLLQGTLLKISAGNIQERAFFLFDNLLVYCKRKSRVTGSKKSTKRTKSINGSLYIFRGRINTEVMEVENVEDGTADYHSNGYTVTNGWKIHNTAKNKWFVCMAKTAEEKQKWLDAIIREREQRESLKLGMERDAYVMIAEKGEKLYHMMMNKKVNLIKDRRRKLSTVPKCFLGNEFVAWLLEIGEISKTEEGVNLGQALLENGIIHHVSDKHQFKNEQVMYRFRYDDGTYKARSELEDIMSKGVRLYCRLHSLYTPVIKDRDYHLKTYKSVLPGSKLVDWLLAQGDCQTREEAVALGVGLCNNGFMHHVLEKSEFRDESQYFRFHADEEMEGTSSKNKQLRNDFKLVENILAKRLLILPQEEDYGFDIEEKNKAVVVKSVQRGSLAEVAGLQVGRKIYSINEDLVFLRPFSEVESILNQSFCSRRPLRLLVATKAKEIIKIPDQPDTLCFQIRGAAPPYVYAVGRGSEAMAAGLCAGQCILKVNGSNVMNDGAPEVLEHFQAFRSRREEALGLYQWIYHTHEDAQEARASQEASTEDPSGEQAQEEDQADSAFPLLSLGPRLSLCEDSPMVTLTVDNVHLEHGVVYEYVSTAGVRCHVLEKIVEPRGCFGLTAKILEAFAANDSVFVENCRRLMALSSAIVTMPHFEFRNICDTKLESIGQRIACYQEFAAQLKSRVSPPFKQAPLEPHPLCGLDFCPTNCHINLMEVSYPKTTPSVGRSFSIRFGRKPSLIGLDPEQGHLNPMSYTQHCITTMAAPSWKCLPAAEGDPQGQGLHDGSFGPASGTLGQEDRGLSFLLKQEDREIQDAYLQLFTKLDVALKEMKQYVTQINRLLSTITEPTSGGSCDTSLAEEASSLPLVSEESEMDRSDHGGIKKVCFKVAEEDQEDSGHDTMSYRDSYSECNSNRDSVLSYTSVRSNSSYLGSDEMGSGDELPCDMRIPSDKQDKLHGCLEHLFNQVDSINALLKGPVMSRAFEETKHFPMNHSLQAIHPFTHSATHAPINPSVHPPLHPTTHLPSIHPPTHPPTHPSIYPPTHPSIHLLVCPSIHPSLLPSVCPLFHPSTHSFIIYLSIHASVHPVNNFPEPACARPCTGHWRP,soluble
2,LIFTCDKNKLQESIAIAQKAITGKSTMPILEGLYIEASENIVTIIGSDKDVSIETKFEADVTEPGKLVVDAKIFGEIIRKLPNDKIKIETVSEEAIRITCQKSVFDLLHMNAEDFPSLPKINENMIFSINQGILKNMIKGTSFAIAQDETRPILQGILFEIKDSKLNLVALDGYRLAIRTENIDTNNTINAVIPGKTLNEVAKILEDSEEIVNITFTPNHILFNMGDTKVISRLLEGEFIKYDALLPKEHKLQIEVDKQTLQNGIERASLMAKEGNSNLVKFDITDENIVITSNSQLGKVREEVTIKLQGDEIQIAFNSKYLLDVLKNMEEDKIELRMTSSISPCIIRNKNNDLCEYLVLPVRIAR,soluble
3,LKEDKEKYPIFVFIHKDKVTISIDTTGDALHKRGYREKANKAPIRETLAAGLIYLTPWKAGRVLVDPMCGSGTILIEAAMIGINMAPGLNREFISEKWRTLDKKIWWDVRKDAFNKIDNESKFKIYGYDIDEESIDIARENAEIAGVDEYIEFNVGDATQFKSEDEFGFIITNPPYGERLEDKDSVKQLYKELGYAFRKLKNWSYYLITSYEDFEYEFGQKADKKRKLYNGMLKTNFFQYPGPKPPRNNK,not soluble
4,LKFPKVAVVGSRACSKQGAKSVEKVIQGLENELVIVSGLAKGIDTAAHMAALQNGGKTIAVIGTGLDVFYPKANKRLQDYIGNDHLVLSEYGPGEQPLKFHFPARNRIIAGLCRGVIVAEAKMRSGSLITCERAMEEGRDVFAIPGSILDGLSDGCHHLIQEGAKLVTSGQDVLAEFEF,not soluble
5,LLTAAYAAKEHLIMTTPYFVPSDDLLHAICTAAQRGVDVSIILPRKNDSLLVGWASRAFFTELLAAGVKIYQFEGGLLHTKSVLVDGELSLVGTVNLDMRSLWLNFEITLVIDDAGFGSDLAAVQDDYISRSRLLDARLWLKRPLWQRIAERLFYFFSPLL,not soluble
6,LMGDDKVKKEVGRASWKYFHTLLARFPDEPTPEEREKLHTFIGLYAELYPCGECSYHFVKLIEKYPVQTSSRTAAAMWGCHIHNKVNEYLKKDIYDCATILEDYDCGCSDSDGKRVS,soluble
7,LNSVGQGEFGGAPFKRFLRGTRIVSGGKLKRMTREKAKQVTVAGVPMPRDAEPRHLLVNGATGTGKSVLLRELAYTGLLRGDRMVIVDPNGDMLSKFGRDKDIILNPYDQRTKGWSFFNEIRNDYDWQRYALSVVPRGKTDEAEEWASYGRLLLRETAKKLALIGTPSMRELFHWTTIATFDDLRGFLEGTLAESLFAGSNEASKALTSARFVLSDKLPEHVTMPDGDFSIRSWLEDPNGGNLFITWREDMGPALRPLISAWVDVVCTSILSLPEEPKRRLWLFIDELASLEKLASLADALTKGRKAGLRVVAGLQSTSQLDDVYGVKEAQTLRASFRSLVVLGGSRTDPKTNEDMSLSLGEHEVERDRYSKNTGKHHSTGRALERVRERVVMPAEIANLPDLTAYVGFAGNRPIAKVPLEIKQFANRQPAFVEGTI,soluble
8,LQERDIVPVDASYEVKELYVPENKLHLAKTDAETLPALKINKVDMQWVQVLAEGWATPLNGFMREREYLQCLHFDCLLDGGVINLSVPIVLTATHEDKERLDGCTAFALMYEGRRVAILRNPEFFEHRKEERCARQWGTTCKNHPYIKMVMEQGDWLIGGDLQVLDRVYWNDGLDQYRLTPTELKQKFKDMNADAVFAFQLRNPVHNGHALLMQDTHKQLLERGYRRPVLLLHPLGGWTKDDDVPLMWRMKQHAAVLEEGVLNPETTVVAIFPSPMMYAGPTEVQWHCRARMVAGANFYIVGRDPAGMPHPETGKDLYEPSHGAKVLTMAPGLITLEIVPFRVAAYNKKKKRMDYYDSEHHEDFEFISGTRMRKLAREGQKPPEGFMAPKAWTVLTEYYKSLEKA,soluble
9,LQIFSKEGLLIQEYGEKKRIPVTYDEIPPTLIHALIATEDQRFFEHPGVDVMGLGRAAVSMLKTGTKSQGGSTITMQVARNFFLSRKKTFLRKFNEIMLAIKIDRELSKEKILELYLNRVYLGNRAYGVGAAAMVYFGKSLKDLNLAELAMIAGLPQAPSTQNPIANP,not soluble
10,LREQPQQNECQLERLDALEPDNRIESEGGLIETWNPNNKQFRCAGVALSRATLQRNALRRPYYSNAPQEIFIQQGNGYFGMVFPGCPETFEEPQESEQGEGRRYRDRHQKVNRFREGDIIAVPTGIVFWMYNDQDTPVIAVSLTDIRSSNNQLDQMPRRFYLAGNHEQEFLQYQHQQGGKQEQENEGNNIFSGFKRDFLEDAFNVNRHIVDRLQGRNEDEEKGAIVKVKGGLSIISPPEKQARHQRGSRQEEDEDEEKQPRHQRGSRQEEEEDEDEERQPRHQRRRGEEEEEDKKERGGSQKGKSRRQGDNGLEETVCTAKLRLNIGPSSSPDIYNPEAGRIKTVTSLDLPVLRWLKLSAEHGSLHKNAMFVPHYNLNANSIIYALKGRARLQVVNCNGNTVFDGELEAGRALTVPQNYAVAAKSLSDRFSYVAFKTNDRAGIARLAGTSSVINNLPLDVVAATFNLQRNEARQLKSNNPFKFLVPARESENRASA,soluble
11,LSLLGVGAASLYVSDSPQPKMAQSQHDTTIDLSSQKDFFEYSLSGLGEHSLEEIQENIEESISQQNSLGIDVELFQTYLAYKRALSKLEPLEDTTLSLSQLQRLNEAILNLQLEYFNDQQISQLFDEENRLRQLAIEKLVIKTYEQDSDSQQLLLNQALSEQPEYIQKSERNNALTRQLDQTELLSSQDKYLARVELVGEEGAQRLQKLDEQRATFEIELTNYLEKRADILNDEFLDSEQKQLEIANLRKQSFETTQWRRIEALERIHDS,not soluble
12,LSWKRCAGCGGKIADRFLLYAMDSYWHSRCLKCSSCQAQLGDIGTSSYTKSGMILCRNDYIRLFGNSGACSACGQSIPASELVMRAQGNVYHLKCFTCSTCRNRLVPGDRFHYINGSLFCEHDRPTALINGHLNSGGSGGSGGSGGDVMVVGEPTLMGGEFGDEDERLITRLENTQFDAANGIDDETRESGSIEF,soluble
13,LTEKQKRFADEYIKCGNATEAARLAGYSSKTANRIATENLSKPVIKGYIDKVLSELEEKRVMGYTEAMQLFTEIARGEMEEEVIVSNGDGFSVVTKSADINQRVSALKEIVKRHVAGGRDKLQEELIQAQIDKLRADT,not soluble
14,LTGPLMLDTAPNAFDDQYEGCVNKMEEKAPLLLQEDFNMNAKLKVAWEEAKKRWNNIKPSRSYPKGFNDFHGTALVAYTGSIAVDFNRAVREFKENPGQFHYKAFHYYLTRALQLLSNGDCHSVYRGTKTRFHYTGAGSVRFGQFTSSSLSKKVAQSQEFFSDHGTLFIIKTCLGVYIKEFSFRPDQEAVLIPGYEVYQKVRTQGYNEIFLDSPKRKKSNYNCLYS,soluble
15,LTSTLLRLSTDKIGAIIAIENQDSLESYVNIGYRVTSDFSPELLVTIFYNKQSPLHDGAVIVRDYQIVSVSSYFPMTRQLIDVSYGSRHRSALGLTEKCDAIVFIVSETTGKISVAVRGVIK,not soluble
16,LVLKVVTVTRNLDPDDTARKKAPPPPKRAPTTALTLRSKSMTSELEELVDKDKPEEIVPASKPSRAAENMAVEPRVATIKQRPSSRCFPAGSDMNSVYERQGIAVMTPTVPGSPKAPFLGIPRGTMRRQKSIDSRIFLSGITEEERQFLAPPMLKFTRSLSMPDTSEDIPPPPQSVPPSPPPPSPTTYNCPKSPTPRVYGTIKPAFNQNSAAKVSPATRSDTVATMMREKGMYFRRELDRYSLDSEDLYSRNAGPQANFRNKRGQMPENPYSEVGKIASKAVYVPAKPARRKGMLVKQSNVEDSPEKTCSIPIPTIIVKEPSTSSSGKSSQGSSMEIDPQAPEPPSQLRPDESLTVSSPFAAAIAGAVRDREKRLEARRNSPAFLSTDLGDEDVGLGPPAPRTRPSMFPEEGDFADEDSAEQLSSPMPSATPREPENHFVGGAEASAPGEAGRPLNSTSKAQGPESSPAVPSASSGTAGPGNYVHPLTGRLLDPSSPLALALSARDRAMKESQQGPKGEAPKADLNKPLYIDTKMRPSLDAGFPTVTRQNTRGPLRRQETENKYETDLGRDRKGDDKKNMLIDIMDTSQQKSAGLLMVHTVDATKLDNALQEEDEKAEVEMKPDSSPSEVPEGVSETEGALQISAAPEPTTVPGRTIVAVGSMEEAVILPFRIPPPPLASVDLDEDFIFTEPLPPPLEFANSFDIPDDRAASVPALSDLVKQKKSDTPQSPSLNSSQPTNSADSKKPASLSNCLPASFLPPPESFDAVADSGIEEVDSRSSSDHHLETTSTISTVSSISTLSSEGGENVDTCTVYADGQAFMVDKPPVPPKPKMKPIIHKSNALYQDALVEEDVDSFVIPPPAPPPPPGSAQPGMAKVLQPRTSKLWGDVTEIKSPILSGPKANVISELNSILQQMNREKLAKPGEGLDSPMGAKSASLAPRSPEIMSTISGTRSTTVTFTVRPGTSQPITLQSRPPDYESRTSGTRRAPSPVVSPTEMNKETLPAPLSAATASPSPALSDVFSLPSQPPSGDLFGLNPAGRSRSPSPSILQQPISNKPFTTKPVHLWTKPDVADWLESLNLGEHKEAFMDNEIDGSHLPNLQKEDLIDLGVTRVGHRMNIERALKQLLDR,soluble
17,LVRSGRNITMQIIGYMTSHRKQHLEATDVAREFGYGREHFCRLFRKATGKTFKEFLTDLRLDDACRKLSGSSASIASIARECGFPDTRALQTAVQRKYGIRAQEYRERYENR,soluble
18,LVTKEVEYEDGDTVCKGFIAYHSSASKPLPCVMVAHDWGGRGEGACNKARQLAGMGYIGFAIDMYGNAKLGKDKAEKRALMTPFRENRGKLITRINAAFNKVVQLPEVDSEKVAAIGYCFGGLCVLDLIRSGAPLKGVVSFHGVLLPLEGESNKSLNAKVLILHGYDDPLVPIEQVNQFAIEMTERKVDWQVHVYGQTAHSFTDPGANDDEMGLHYNKLADQRSWQSTQLFLQELF,not soluble
